Experiment [1] relates to supercoiled pUC19 plasmid DNA. Kind of experiment: In vitro condensation assay of Mre11 (fluorescence microscopy). The note with it: eGFP-tagged truncations with plasmid DNA. The experiment is classed as biochemical. The procedure: Fig. 1 Mre11 and the MRX complex assemble DNA-dependent condensates in vitro. a, c Effect of the presence of plasmid DNA on condensation of (a) Alexa488-labeled Mre11 (n = 11 and 9 fields of view for reactions without and with DNA, respectively) and (c) eGFP-tagged MRX (n = 11 (- DNA) and 9 ( + DNA)). Experiments were performed without PEG. b, d Effect of DNase I, in the absence of PEG, on (b) Mre11 (n = 9 (no treatment) and 11 (DNase I)) and (d) MRX (n = 9 (no treatment) and 11 (DNase I)) condensates. Condensates were pre-assembled for 20 min with 5.7 nM pUC19 prior to challenge. Quantification represents total foci intensity (green) in a field of view and total number of foci per 1000 µm^2 (magenta). Foci intensity is normalized to the mean intensity of samples with DNA for (a, c) and untreated samples for (b, d). […] Quantification represents total foci intensity (green) in a field of view (normalized to the mean of + PEG images) and total number of foci per 1000 µm^2 (magenta). […]
Fig. 2 The C-terminal IDR of Mre11 is required for condensation. a AlphaFold2 predicted model of Mre11 (AF-P32829-F1-v4). […] Quantification represents total fluorescence intensity (green) in a field of view and total number of foci per 1000 µm^2 (magenta). […]

In experiment [2] the test system is pUC19 plasmid substrate. Kind of experiment: Gel shift assay, plasmid DNA binding. The note with it: 1 nM pUC19, 25 mM HEPES-HCl pH 7.5, 100 mM NaCl, 5 mM EDTA, 30 °C 30 min. On the procedure:
Proteins were diluted to their appropriate working concentrations in their respective storage buffers. […] Reactions were assembled at 30 °C for 30 mins and resolved in a 1% agarose (SeaKem LE Agarose, Lonza) at 60 V for 120 mins at 4 °C. Gels were stained with SYBR Gold Nucleic Acid Gel Stain (S11497, Invitrogen) for 40 mins and visualized with Amersham Typhoon biomolecular imager (Cytiva).

In experiment [3] the test system is spores of yeast strains. Kind of experiment: Spore viability assay. The note with it: Fig. 7c. The experiment is classed as cell-based, Saccharomyces cerevisiae. The procedure:
For the spore viability assay, a small patch of the diploid strain was incubated in sporulation media (2% potassium acetate) at 30 °C, 250 rpm for two days. After two days, 1 mL of sporulating culture was centrifuged, and all but 200 µL of supernatant was removed. To digest yeast cells, 2 µL of concentrated sporulation culture was mixed with 100 µL 1 M sorbitol and 1 µL 10 mg/ml zymolyase and incubated at 30 °C for 21 mins. 20 µL of digested cells were dropped on a YPD plate, left to dry for about 10 mins, and were micromanipulated using a tetrad dissector (MSM400, Singer Instruments). At least 20 tetrads were dissected for each assay, and spore viability was assessed by calculating the number of viable spores after 2 days of incubation at 30 °C.

Experiment [4] concerns Mer2. Nature of the experiment: Co-immunoprecipitation of Mer2 and Mre11 from meiotic extracts. To be noted: Supplementary Fig. 6i. The format is binding, Saccharomyces cerevisiae. On the procedure: Meiotic cultures were collected at 4 h after transferring to SPM, washed once in ice-cold 1 × PBS containing 1 mM PMSF, following which, they were transferred to 1.5 ml screw-cap tubes and were either snap frozen in liquid nitrogen or processed directly. […] 900 µL of 0.5 mm zirconium beads were added to the cell pellet, and cells were lyzed in a Precellys bead beater at 7200 rpm for 12 × 15 seconds while chilling the tubes for 2 min on ice between each cycle. Cell extract was collected by poking a hole at the bottom of the tubes while placing the tubes on top of another 1.5 ml tubes and centrifuging at 800 × g for 1 min at 4 °C. Beads were washed with 500 µl of IP buffer and collected in the same tube. Cell lysate was spun again at 800 g for 5 min at 4 °C and supernatant was transferred to 15 mL tubes. Sonication was performed three times in ice in Bioruptor Plus at intensity (M) in a 30 s ON / 30 s OFF cycle for 15 min each time. The lysate was centrifuged at 15.000 g at 4 °C for 10 min and the supernatant (~ 800 µl) was transferred to new 1.5 ml tubes. 80 µL (10%) was collected as Input fraction and snap frozen. 1 µL of mouse monoclonal anti-myc primary antibody was added to each tube, and tubes were rotated overnight at 5 rpm at 4 °C. The following day, Dynabeads Protein G (30 µl per tube) were added to Protein LoBind tubes and washed two times with 1 mL IP buffer containing 1 mM PMSF using DynaMag2. The lysates with the antibody were transferred to the tubes containing Dynabeads and were rotated for 3-4 hours at 5 rpm at 4 °C, following which, the Dynabeads were collected and washed four times with 1 ml IP buffer containing 1 mM PMSF. Finally, 60 µL IP buffer and 20 µL 4 × Lammelli buffer was added to the tubes and incubated for 5 mins at 95 °C while shaking at 1000 rpm. TCA extraction was performed on the input fractions by adding 8 µL 100 % TCA (final 10 % TCA) and incubating on ice for 30 mins. Precipitated proteins were solubilized in 40 µL 1 × Laemmli sample buffer incubated for 5 mins at 95 °C. Immunoblotting was performed using the protocol described below.

B1: Mre11-IDR: Mre11 disordered region alone (524-677) (protein, UniProt P32829 524-677, looked up, fragment)
chain: NSVRPTPPKENDETNFAFNGNGLDSFRSSNREVRTGSPDITQSHVDNESRITHISQAESSKPTSKPKRVRTATKKKIPAFSDSTVISDAENELGDNNDAQDDVDIDENDIIMVSTDEEDASYGLLNGRKTKTKTRPAASTKTASRRGKGRASRT
Consider B1, for which the “Condensation of Mre11 truncations (in words)” value in experiment [1] was “failed to form condensates”. The “DNA-binding activity (in words)” value in experiment [2] is “reduced DNA binding as compared to the wild type or Mre11^ΔIDR”.

B2: Mre11-myc (WT) (protein, UniProt P32829 1-692, looked up)
Double-strand break repair …: MDYPDPDTIRILITTDNHVGYNENDPITGDDSWKTFHEVMMLAKNNNVDMVVQSGDLFHVNKPSKKSLYQVLKTLRLCCMGDKPCELELLSDPSQVFHYDEFTNVNYEDPNFNISIPVFGISGNHDDASGDSLLCPMDILHATGLINHFGKVIESDKIKVVPLLFQKGSTKLALYGLAAVRDERLFRTFKDGGVTFEVPTMREGEWFNLMCVHQNHTGHTNTAFLPEQFLPDFLDMVIWGHEHECIPNLVHNPIKNFDVLQPGSSVATSLCEAEAQPKYVFILDIKYGEAPKMTPIPLETIRTFKMKSISLQDVPHLRPHDKDATSKYLIEQVEEMIRDANEETKQKLADDGEGDMVAELPKPLIRLRVDYSAPSNTQSPIDYQVENPRRFSNRFVGRVANGNNVVQFYKKRSPVTRSKKSGINGTSISDRDVEKLFSESGGELEVQTLVNDLLNKMQLSLLPEVGLNEAVKKFVDKDEKTALKEFISHEISNEVGILSTNEEFLRTDDAEEMKALIKQVKRANSVRPTPPKENDETNFAFNGNGLDSFRSSNREVRTGSPDITQSHVDNESRITHISQAESSKPTSKPKRVRTATKKKIPAFSDSTVISDAENELGDNNDAQDDVDIDENDIIMVSTDEEDASYGLLNGRKTKTKTRPAASTKTASRRGKGRASRTPKTDILGSLLAKKRK
modifications: myc tag
In experiment [3] (spores placed: 144 (WT), 80 (ΔC15), 88 (SIM), 80 (ΔC15+ SIM)), B2 registered a Visible spore colonies of 140. In experiment [3] (visible spore colonies of spores placed), the “Spore Viability” value came to 97.22.

B3: Mre11-ΔC15: Mre11 lacking the C-terminal 15-residue α-helix (protein)
chain: MDYPDPDTIRILITTDNHVGYNENDPITGDDSWKTFHEVMMLAKNNNVDMVVQSGDLFHVNKPSKKSLYQVLKTLRLCCMGDKPCELELLSDPSQVFHYDEFTNVNYEDPNFNISIPVFGISGNHDDASGDSLLCPMDILHATGLINHFGKVIESDKIKVVPLLFQKGSTKLALYGLAAVRDERLFRTFKDGGVTFEVPTMREGEWFNLMCVHQNHTGHTNTAFLPEQFLPDFLDMVIWGHEHECIPNLVHNPIKNFDVLQPGSSVATSLCEAEAQPKYVFILDIKYGEAPKMTPIPLETIRTFKMKSISLQDVPHLRPHDKDATSKYLIEQVEEMIRDANEETKQKLADDGEGDMVAELPKPLIRLRVDYSAPSNTQSPIDYQVENPRRFSNRFVGRVANGNNVVQFYKKRSPVTRSKKSGINGTSISDRDVEKLFSESGGELEVQTLVNDLLNKMQLSLLPEVGLNEAVKKFVDKDEKTALKEFISHEISNEVGILSTNEEFLRTDDAEEMKALIKQVKRANSVRPTPPKENDETNFAFNGNGLDSFRSSNREVRTGSPDITQSHVDNESRITHISQAESSKPTSKPKRVRTATKKKIPAFSDSTVISDAENELGDNNDAQDDVDIDENDIIMVSTDEEDASYGLLNGRKTKTKTRPAASTKTASRRGKGRASRT
modifications: left off: Gal4 activation domain (from the vector pGAD-C1), end not stated, kept
notes: Mre11 lacking the C-terminal 15-residue α-helix
B3: the “Normalized to WT Mer2 IP” value in experiment [4] (Experiment 1) stood at 68.56.

B4: Mer2-EQEK (protein)
chain: MVARGRTDEISTDVSEANSEHSLMITETSSPFRSIFSHSGKVANAGALEASDKAILAWAGALELESMELRENSDKLIKVLNENSKTLCKSLNKFNQLLEQDAATNGNVKTLIKDLASQIENQLDKVSTAMLSKGDEKKTKSDSSYRQVLVEEISRYNSKITRHVTNKQHETEKSMRCTQEMLFNVGSQLEDVHKVLLSLSKDMHSLQTRQTALEMAFREKADHAYDRPDVSLNGTTLLHDMDEAHDKQRKKSVPPPRMMVTRSMKRRRSSSPTLSTSQNHNSEDNDDASHRLKRAARTIIPWEELRPDTLESEL
modifications: left off: V5, internal (after residue 248), kept
In the case of B4, the “Normalized to WT Mer2 IP” value was determined as 56.73 in experiment [4] (Experiment 1) and 70.72 in experiment [4] (Experiment 2).
